According to US20160304578A1 (XYPHOS BIOSCIENCES, published 2016):

Tests used:
[1] = molecular target: T1, NKG2D on the human NK cell line NKL (human, UniProt P26718 1-216); assay: cell-based or functional assay
T1 sequence (looked up): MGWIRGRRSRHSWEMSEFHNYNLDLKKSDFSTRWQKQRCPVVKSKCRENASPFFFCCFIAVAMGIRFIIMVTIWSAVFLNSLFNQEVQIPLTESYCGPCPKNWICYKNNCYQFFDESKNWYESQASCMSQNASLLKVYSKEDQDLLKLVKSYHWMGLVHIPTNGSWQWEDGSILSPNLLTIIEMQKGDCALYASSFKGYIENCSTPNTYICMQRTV

biotinylated human NKG2D [2] = molecular target: T2, biotinylated human NKG2D (human, UniProt P26718 78-216, limits assumed, biotinylated (site not stated)); assay: biolayer interferometry (Octet), Kd = kOFF/kON
T2 construct: also called recombinant biotinylated NKG2D
T2 sequence (looked up): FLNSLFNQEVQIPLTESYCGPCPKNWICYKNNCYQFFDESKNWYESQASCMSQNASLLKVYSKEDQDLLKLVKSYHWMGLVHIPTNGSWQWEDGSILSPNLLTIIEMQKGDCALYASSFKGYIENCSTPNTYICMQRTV

biotinylated human NKG2D [3] = molecular target: T2, biotinylated human NKG2D; assay: biolayer interferometry (Octet), biotinylated human NKG2D; Table 5 compared with Table 3
Method: (§1) In order to characterize the NKG2D binding affinities, both the on-rates and off-rates for the three α1-α2 variant NKG2DLs binding to surface-coated biotinylated human NKG2D were measured using biolayer interferometry (Octet). Binding titrations were performed for each protein using a titration range of 1-100 nM, and the kinetic data were fitted to obtain on-rates, off-rates, and equilibrium binding constants.

biotinylated human NKG2D [4] = molecular target: T2, biotinylated human NKG2D; assay: biolayer interferometry (Octet), surface-coated biotinylated human NKG2D, titration 1-100 nM
Method: as §1

human NKG2D-Fc [5] = molecular target: T3, human NKG2D-Fc (human, UniProt P26718 78-216, limits assumed); assay: phage ELISA: ULBP3 variant displayed on phage titrated against NKG2D
T3 construct: not shown: Fc part
T3 sequence (looked up): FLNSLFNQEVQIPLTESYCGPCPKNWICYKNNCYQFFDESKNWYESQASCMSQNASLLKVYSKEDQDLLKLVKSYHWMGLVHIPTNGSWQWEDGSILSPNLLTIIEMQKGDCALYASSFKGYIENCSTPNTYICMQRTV

human NKG2D-Fc [6] = molecular target: T3, human NKG2D-Fc; assay: phage ELISA: ULBP2 variant displayed on phage titrated against NKG2D

B1: α1-α2 variant 16 (designed binder)
chain: EPHSLRYNLTVLSWDGSVQSGFLTEVHLDGQPFLRCDRQKCRAKPQGQWAEDVLGNKTWDRETRDLTGWGKDLRMTLAHIKDQKEGLHSLQEIRVCEIHEDNSTRSSQHFYYDGELFLSQNLETLEWTMPQSSRAQTLAMNVRNFLKEDAMETDTHYHAMRADCLQELRRYLKSGVVLRRTVPPMVQVTRSEASGGSGDRVTITCRASQDVSTAVAWYQQKPGKAPKLLIYSASFLYSGVPSRFSGSGSGTDFTLTISSLQPEDFATYYCQQSYTTPPTFGQGTKVEIKGGSSRSSSSGGGGSGGGGEVQLVESGGGLVQPGGSLRLSCAASGFTFTSTGISWVRQAPGKGLEWVGRIYPTNGSTNYADSVKGRFTISADTSKNTAYLQMNSLRAEDTAVYYCARTYGIYDLYVDYTEYVMDYWGQGTLVTVSSGGSSRSSSSGGGGSGGGGDIQMTQSPSSLSASGGSGQITVTCRASGFYPWNITLSWRQDGVSLSHDTQQWGDVLPDGQGTYQTWVATRISQGEEQRFTCYMEHSGQHSTHPVPSGKGSHHHHHH
killing of FGFR3-expressing P815 target cells by NKL cells (calcein-release assay), fold over WT at 0.78 nM [1]: ~15 fold

B2: α1-α2 variant 25 (designed binder)
chain: EPHSLRYNLTVLSWDGSVQSGFLTEVHLDGQPFLRCDRQKCRAKPQGQWAEDVLGNKTWDRETRDLTGWGKDLRMTLAHIKDQKEGLHSLQEIRVCEIHEDNSTRSSQHFYYDGELFLSQNLETLEWTMPQSSRAQTLAMNVRNFLKEDAMETDTHYHAMRADCLSELRRYLKSGVVLRRTVPPMVQVTRSEASGGSGDRVTITCRASQDVSTAVAWYQQKPGKAPKLLIYSASFLYSGVPSRFSGSGSGTDFTLTISSLQPEDFATYYCQQSYTTPPTFGQGTKVEIKGGSSRSSSSGGGGSGGGGEVQLVESGGGLVQPGGSLRLSCAASGFTFTSTGISWVRQAPGKGLEWVGRIYPTNGSTNYADSVKGRFTISADTSKNTAYLQMNSLRAEDTAVYYCARTYGIYDLYVDYTEYVMDYWGQGTLVTVSSGGSSRSSSSGGGGSGGGGDIQMTQSPSSLSASGGSGQITVTCRASGFYPWNITLSWRQDGVSLSHDTQQWGDVLPDGQGTYQTWVATRISQGEEQRFTCYMEHSGQHSTHPVPSGKGSHHHHHH
notes: Expressed in HEK293 (Expi293)
EC50 for cell killing, fold improvement over variant 16 [1]: ~5 fold | killing of FGFR3-expressing P815 target cells by NKL cells (calcein-release assay), fold over variant 16 at 0.2 nM [1]: ~3 fold | Kd (biotinylated human NKG2D [2]): 0.062 nM | fold enhancement in equilibrium binding affinity against variant 16 (biotinylated human NKG2D [3]): 8 fold | koff (biotinylated human NKG2D [4]): 2.9e-05 s⁻¹ | kon (biotinylated human NKG2D [4]): 470000 M⁻¹ s⁻¹

B3: α1-α2 variant 18 (designed binder)
chain: EPHSLRYNLTVLSWDGSVQPGFLTEVHLDGQPFLRCDRQKCRAKPQGQWAEDVLGNKTWDRETRDLTLWGKDLRMTLAHIKDQKEGLHSLQEIRVCEIHEDNSTRSSQHFYYDGELFLSQNLETLEWTMPQSSRAQTLAMNVRNFLKEDAMETDTHYHAMRADCLQELRRYLKSGVVLRRTVPPMVQVTRSEASGGSGDRVTITCRASQDVSTAVAWYQQKPGKAPKLLIYSASFLYSGVPSRFSGSGSGTDFTLTISSLQPEDFATYYCQQSYTTPPTFGQGTKVEIKGGSSRSSSSGGGGSGGGGEVQLVESGGGLVQPGGSLRLSCAASGFTFTSTGISWVRQAPGKGLEWVGRIYPTNGSTNYADSVKGRFTISADTSKNTAYLQMNSLRAEDTAVYYCARTYGIYDLYVDYTEYVMDYWGQGTLVTVSSGGSSRSSSSGGGGSGGGGDIQMTQSPSSLSASGGSGQITVTCRASGFYPWNITLSWRQDGVSLSHDTQQWGDVLPDGQGTYQTWVATRISQGEEQRFTCYMEHSGQHSTHPVPSGKGSHHHHHH
killing of FGFR3-expressing P815 target cells by NKL cells (calcein-release assay), fold over WT at 0.78 nM [1]: ~15 fold

B4: α1-α2 variant 17 (designed binder)
chain: EPHSLRYNLTVLSWDGSVQSGFLTEVHLDGQPFLRCDRQKCRAKPQGQWAEDVLGNKTWDRETRDLTLWGKDLRMTLAHIKDQKEGLHSLQEIRVCEIHEDNSTRSSQHFYYDGELFLSQNLETLEWTMPQSSRAQTLAMNVRNFLKEDAMETDTHYHAMRADCLQELRRYLKSGVVLRRTVPPMVQVTRSEASGGSGDRVTITCRASQDVSTAVAWYQQKPGKAPKLLIYSASFLYSGVPSRFSGSGSGTDFTLTISSLQPEDFATYYCQQSYTTPPTFGQGTKVEIKGGSSRSSSSGGGGSGGGGEVQLVESGGGLVQPGGSLRLSCAASGFTFTSTGISWVRQAPGKGLEWVGRIYPTNGSTNYADSVKGRFTISADTSKNTAYLQMNSLRAEDTAVYYCARTYGIYDLYVDYTEYVMDYWGQGTLVTVSSGGSSRSSSSGGGGSGGGGDIQMTQSPSSLSASGGSGQITVTCRASGFYPWNITLSWRQDGVSLSHDTQQWGDVLPDGQGTYQTWVATRISQGEEQRFTCYMEHSGQHSTHPVPSGKGSHHHHHH
killing of FGFR3-expressing P815 target cells by NKL cells (calcein-release assay), fold over WT at 0.78 nM [1]: ~15 fold

B5: α1-α2 variant 20 (designed binder)
chain: EPHSLRYNLTVLSWDGSVQSGFLTEVHLDGQPFLRCDRQKCRAKPQGQWAEDVLGNKTWDRETRDLTAWGKDLRMTLAHIKDQKEGLHSLQEIRVCEIHEDNSTRSSQHFYYDGELFLSQNLETLEWTMPQSSRAQTLAMNVRNFLKEDAMQTDTHYRAMHADCLFELRRYLKSGVVLRRTVPPMVQVTRSEASGGSGDRVTITCRASQDVSTAVAWYQQKPGKAPKLLIYSASFLYSGVPSRFSGSGSGTDFTLTISSLQPEDFATYYCQQSYTTPPTFGQGTKVEIKGGSSRSSSSGGGGSGGGGEVQLVESGGGLVQPGGSLRLSCAASGFTFTSTGISWVRQAPGKGLEWVGRIYPTNGSTNYADSVKGRFTISADTSKNTAYLQMNSLRAEDTAVYYCARTYGIYDLYVDYTEYVMDYWGQGTLVTVSSGGSSRSSSSGGGGSGGGGDIQMTQSPSSLSASGGSGQITVTCRASGFYPWNITLSWRQDGVSLSHDTQQWGDVLPDGQGTYQTWVATRISQGEEQRFTCYMEHSGQHSTHPVPSGKGSHHHHHH
notes: Expressed in HEK293 (Expi293)
Kd (biotinylated human NKG2D [2]): 0.083 nM | koff (biotinylated human NKG2D [4]): 3e-05 s⁻¹ | kon (biotinylated human NKG2D [4]): 360000 M⁻¹ s⁻¹

B6: K165S (designed binder)
α1-α2 domain displayed on M13 phage (pIII fusion): AAEPHSLWYNFTIIHLPRHGQQWCEVQSQVDQKNFLSYDCGSDKVLSMGHLEEQLYATDAWGKQLEMLREVGQRLRLELADTELEDFTPSGPLTLQVRMSCESEADGYIRGSWQFSFDGRKFLLFDSNNRKWTVVHAGARRMKEKWEKDSGLTTFFKMVSMRDCSSWLRDFLMHRKKRLEPTAPPMV
EC50 (read off the curve) (human NKG2D-Fc [5]): ~0.002 OD268 (phage)

B7: R162G (designed binder)
α1-α2 domain displayed on M13 phage (pIII fusion): AAEPHSLWYNFTIIHLPRHGQQWCEVQSQVDQKNFLSYDCGSDKVLSMGHLEEQLYATDAWGKQLEMLREVGQRLRLELADTELEDFTPSGPLTLQVRMSCECEADGYIRGSWQFSFDGRKFLLFDSNNRKWTVVHAGARRMKEKWEKDSGLTTFFKMVSMGDCKSWLRDFLMHRKKRLEPTAPPMV
EC50 (read off the curve) (human NKG2D-Fc [5]): ~0.005 OD268 (phage)

B8: K165P (designed binder)
α1-α2 domain displayed on M13 phage (pIII fusion): AAEPHSLWYNFTIIHLPRHGQQWCEVQSQVDQKNFLSYDCGSDKVLSMGHLEEQLYATDAWGKQLEMLREVGQRLRLELADTELEDFTPSGPLTLQVRMSCESEADGYIRGSWQFSFDGRKFLLFDSNNRKWTVVHAGARRMKEKWEKDSGLTTFFKMVSMRDCPSWLRDFLMHRKKRLEPTAPPMV
EC50 (read off the curve) (human NKG2D-Fc [5]): ~0.004 OD268 (phage)

B9: R80L (designed binder)
α1-α2 domain displayed on M13 phage (pIII fusion): AAEPHSLSYDITVIPKFRPGPRWCAVQGQVDEKTFLHYDCGNKTVTPVSPLGKKLNVTTAWKAQNPVLREVVDILTEQLLDIQLENYTPKEPLTLQARMSCEQKAEGHSSGSWQFSFDGQIFLLFDSEKRMWTTVHPGARKMKEKWENDKVVAMSFHYFSMGDCIGWLEDFLMGMDSTLEPSAGAPPMV
EC50 (read off the curve) (human NKG2D-Fc [6]): ~0.01 OD268 (phage)

B10: V151D (designed binder)
α1-α2 domain displayed on M13 phage (pIII fusion): AAEPHSLCYDITVIPKFRPGPRWCAVQGQVDEKTFLHYDCGNKTVTPVSPLGKKLNVTTAWKAQNPVLREVVDILTEQLRDIQLENYTPKEPLTLQARMSCEQKAEGHSSGSWQFSFDGQIFLLFDSEKRMWTTVHPGARKMKEKWENDKDVAMSFHYFSMGDCIGWLEDFLMGMDSTLEPSAGAPPMV
EC50 (read off the curve) (human NKG2D-Fc [6]): ~0.01 OD268 (phage)

B11: V152L (designed binder)
α1-α2 domain displayed on M13 phage (pIII fusion): AAEPHSLSYDITVIPKFRPGPRWCAVQGQVDEKTFLHYDCGNKTVTPVSPLGKKLNVTTAWKAQNPVLREVVDILTEQLRDIQLENYTPKEPLTLQARMSCEQKAEGHSSGSWQFSFDGQIFLLFDSEKRMWTTVHPGARKMKEKWENDKVLAMSFHYFSMGDCIGWLEDFLMGMDSTLEPSAGAPPMV
EC50 (read off the curve) (human NKG2D-Fc [6]): ~0.01 OD268 (phage)
